This note sets out measurements from PMC9021188 (Cell Discovery, 2022).

One assay concerns the target RaTG13 RBD protein (Bat coronavirus RaTG13, UniProt A0ABF7PLN6). The assay can be described thus: ELISA. As to conditions: both partners purified. For orientation: An ELISA detects its analyte on a solid surface through an enzyme-linked reagent.
For the next assay, the target named is SARS-CoV RBD protein (SARS-CoV, UniProt P59594). The assay can be described thus: cell-based or functional assay.

B1: GW01 (antibody, V domains shown)
VH: EVQLVESGGGVVQPGGSLRLSCAASGFRFDDHAMHWVRQAPGKGLEWVSVISGDGGSTYYADSVKGRFSISRDDSKNSLYLQMNSLRTEDTALYYCAKDRSYGPPDVFNYEYGMDVWGQGTTVTVSS
VL: not shown
notes: also called mAb GW01; antibody GW01
As for B1, the binding result in the assay with RaTG13 RBD protein is reported as “binds”. In the assay with SARS-CoV RBD protein, the “IC50 of neutralisation of pseudotyped SARS-CoV on Huh-7 cells” value turned out to be 0.0193 µg/mL.
